Laboratory results from the supplement of paper PMC12636428.

Test system: Saccharomyces cerevisiae
Assay: transcriptional activation domain activity (GFP:mCherry ratio, weighted mean of sorted bins, harmonized to initial dataset scale) (arbitrary fluorescence ratio units); higher = stronger transcriptional activation
Conditions: beta-estradiol 1 µM; induction time 4 h
How it was run: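 Barcoded protein tiles fused to an estradiol-inducible synthetic transcription factor were integrated at the yeast URA3 locus, in diploids carrying a GFP reporter. Cultures were diluted 1:5 into SC with 1 uM beta-estradiol, held 4 hours at 30 °C, sorted into 8 bins by GFP:mCherry ratio, and barcodes sequenced. Tiles under 50 reads were discarded. Activation activity is the read-weighted mean of bin median fluorescence, averaged across barcodes, then linearly mapped onto the initial dataset scale.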

Sequence	transcriptional activation domain activity
NVRYITNLSFTSDSVYKFLLFYPLFLIMTEPIIQLLGIYLAYIYGLIYLILTS	55800
MLLYTFILIVHIHRDLGSIDFVWKARNETASLRQRYLAVNYQLLFGVIKYLWA	33400
LGVSAGAGLYPLQDKKREEEEDGVRGFVREGLGDLSCFIGSSVPLTAKKVLEA	75700
AKRARKSSSSAAAKEEEGQPQQTAPAAAANGTAADEARADTTTASTKSDKKQK	28800
MSTQGPAKRRGAQATDKPVKRTRVSRACDQCRIAREKCDGAQPTCSTCSTSRR	36700
IGMGLDAMLILSRLSRFIRIACVVFWWPGFAVFIAACKSLCLLLHFRDVRELR	63000
ALLAISLTSFLCSSVFLEIETWCKKYRSHLLLVLMIPMVEPLISLFISFMWLL	62500
GKRGSRGRGRGKGGKKKGKGREGAEEGEGGSRGRGEGGGKTGEGGRESRRRGE	37600
MASEQVEEVTKKVADVAIEAPAAAPAKAPKAPKAPKAKKAKKEAAEGSSPLEL	13700
VQASMAADYAISQFRFLHKLLLVQGHWSYARISEMILTFFFKNIFWVFPSLWY	56100
PDELVKSASRLEIDDPSPVTADGAKKSKNQLKKEQKARQLQLQRSLGPASGAP	< 6570
SQVAVSPGAVIEVNEEDAGEEQEQQQPARKRQRHRSKRQKLDAEQSAGQGGVV	31700
MLQLWWLCVVFCVICFLCEWFRLGVVPPFLAATTLLQLFYFFYLLTFFCRVCA	50700
SNHNNDNDNSNNGDGNNNNTISELVCFDESIADLYPVEIDSPYLITLAYLDKL	71900
HKWIIPTPFASHAFHPVDGYLQSVPYHLFVFIFPLHRILYLVLFVLINFWTIF	62300
GDQGAGRRDRRRRLGHRGGGEGRGREEGEEGRRDGEGRHRGEGGREEGEEEDR	14300
PFTIVFILPFDFSSTQYRICEHNCDAPLGYISSQFTRRLWVVLYWTMYLLTWL	67000
RQRAGASGGEEARGRREGRREGGEGEGEGKTEEGTNERDGREGERREGRRRGG	37700
EQWECTKLVLFSHFTIELPIIWLFHPVAEALGMTTYQVPFPSLQKMAIQIFLF	39400
PSPRRRRDEDRPRRGGGGFRWKGEERRDRRERPRSPRPEKRRRSKSPRPEKKK	27500
TDMDLKILEDLCNISSLYEVPFGKHINHHDHNNAGNGCDGSSTGNNENGNQTM	77600
LQASREEIRKKVSEDDHGLTRFRRQVVLALDLYIWEPICISLRFLRLVMIFVP	52400
EQAPREGQGQGRGRGGRPRGEGRGRGGRGRGRGAPAGNGAAEAAATTAPKSTE	21700
QWIHQYIAVPSGTPRDKCHLRQFCYMGLEQWGVGFIIGLLPLLLSVSLCIFLV	60400
KSPHMSAVESKPKEAKTVVEPKADKAAEVKKEEPKKEVVAAPEPVAAKPIAQI	35600

Sequence	transcriptional activation domain activity
PSEKPANGAKGKGGKPRGKSGEKDNGAAEFGADPKNADKKSSNESSGAKSRPK	37900
RAPRTSPHQHKPAPVPAAALARTSPHPRQHQHQHASRAPPAASPHPRQHQEHQ	31300
RAAVSAPVVPTKAAVAPEEPPVKRKRGRPRLTSPRYRPKAAPAKAPAPTPKVV	50000
VLYGRLRVKAQLLECALWNISAWLSLPDVERKSYTMLFTTLGGLYDMTCRIYL	53000
EGPPSPDKGKAEDEKNEKPQANTAKKAKPTEEKKVGEGKKAAAGTGGAGAKKE	23200
EAKEGEDGEKEKPKRGRKRKEPAADAEDEAADGDAADGEEPPAKKAKPASKAA	61800
ARVQVNFWFFLFVYYGFYNLTALMWITKVFNLYSLNWWPSTMGFPLTITLIAI	55300
SVMKTLLDERRTSGTQPTTAPVAAEEPRLENVALENFVSIGWKLLDDSELGWY	71200
MNFFFCMRSWTLLCYPKTGLLFFILCFFSSALSILSPPPCIFFFFFFLSRVCC	45100
VTSAKPVQNAGKSRPTSPKPKNVEEREEEKPEVKPVAASPVKATPAPTAAAPV	29000
EAAARRERKQAAEKGENRERKRRTQGLQNNTARSQKDGDGKGEGGKDNKKDGK	29200
AVSAGLMSGFGSSSDEDEDEEQENEEDVNNEVSYPLHKLSHRFFFGHNAPSGA	15700
MGLWARFICFVIVCFQITFLYCLLSFSPSFLDLQKTQPLFFTFFFFLLLSLFP	60400
SYLHSFLLSFLYPPSPLVSSPFTLLCSFPYFFSFLSFFFSFSFPYSSSCFVFH	45000
MGSQLPHLQLSDTDGAGPMKRRRPALACVECRRRKVKCDRKKPCSPCTRIKSL	69900
SNDSSDEEDRKSRRKSKKKAKDRDASKERSKKDDKGKKKSRTSKGRSRKDEDS	18600
MPNLGLRREWYKGDFSVKYTQLTLIYLVMCVWFPSCLGGYMLTLQYIMLLLIM	68600
MYFIILAFVWCFCSCFCFRCVAFWWPLSLSLCLSVGIYLLAFFFFFTTLVLVY	26200
MSTNSPESTGDHTDTERKDMPRKRSKVSRACDACRRKKVRCDAEFLTTLQKVT	79400
GGAAKPAFGAAPSGGLFGSTANTTANTGGFGGGFGSGTTAASTSSPFGGGAAS	27700
AEDADADGRTQRQGKGAGASSGSERRTHKARSRKSAKLDSKEKDGEKDKEWKG	23600
MRSMKRTFFFFFLVFDLRYYSVLYYILYLYPFPFFLFLFIFYFPLFLFLSTAS	54500
VNGDLFEADGCTIQWLLDNSHGLIFAVAYPRILTLTYVPALLQTIKTLFLSLF	44000
ELQKLLKFKVDDKKYPRFSPMFYPNNVKKDKLLFRVRLLVNILRVVLLGPSSL	36100
MFGRPYCFGFVVYLFVGCFAVLSVVCSFFFFPLLPLLVVVILLKVVFSFVRAD	29100

Sequence	transcriptional activation domain activity
MCCLLLFSPSFLCFFFAFFFYFTFYMTHLSDFSFLQRAIGLTYVFIWLIYRAH	38100
GGTRRSSNQFGKRNTVALHPVINDFVGTVDSDSLVTAYKPFLASDFIGRGYDD	28300
MAPTTPTNSNGETPVKRGRGRPPKPEHEKKLKPAPSGRGRGRPKGSGVKKTGG	39100
FFLALSFKDPFRWLYQFNMDPSLCTEKYLGSNLCVNQNLITLGFMLLLDLVLF	67300
MDKIRKGKVVVVGCGGVGSWAAVMLVRSCVQHFVVYLVCSSIYIIISGVSKIR	58900
QGAAKAVFEPHFSQKDDEGNIIKKKFAVACRVRNCTKLDRMTVISALAAAVGQ	46500
KEDAGEAEAEGSGDKAEEAIAEKPKRGRKKAEPKEKAEPAAKPAVGRKKSVAE	45700
AGPARTGSSSSSSSSDEDKKKKKDKAEEKVEEKKEKPEEKAEDKKEASTAVAA	23300
SDNGTENNGETKKRYDPKDPLRPRRKKARRACYACQRAHLTCGDERPCQRCIK	16400
SIKVTRYLLNLAHCTNDQWFYYIVFFFAELVVYTIMIVAIGSILFQWRFFCLV	52100
KWVLSILEFFVVHGFFSVTRKNAKSSLQAIHHVPNPKFSDTMKQRCRDRLFTC	51700
FVARLFQSLRRWWDSGLTTHLINASLFFISDGGKYFMGILCYFFQHLWRHHGM	47900
STACILLILVRYLGLIALVLNIIGFFSHEFTMESCQYYWRFMPIMQCFASWAS	61800
DDSAASHAESKEARDGANEADTSSTGGEADSALKESNTKAERRQDKKEEEASG	34100
KEEESNELKSEQEPPSAVESIAAVMTPSDNGSRFYIKRRILIGNVSKYIAPER	23100
GLWLVLLCDAARFPDVVDLVKRKGSRFPASGDLASNESWYLSLWAIKAHILQR	64800
MMRCRFGVVFRILPYYLFVFPQIFIYLLLDSFDVQSSLPLLLLYTSLIILVTW	56900
LLTGSSALLLPVIWPRLSASLRFPVVLLLPLPYIFTYLCVYPPTPFSPHITPT	59300
EPSRAGTPAPAPAAGEKKVGEAEGKVAEKAEGEGEGGKGAGEENNGKGKESVK	19100
CDTGILLCLVCYLSSKVLLYFFLVEKVHVIRGNNDSRWKDKLFVFNCFGMMLP	38100
DLHLICNMVNGSTTFHSGESWTPVCLPRFNSKGFLHAYVCFVAKETCLVLISP	30300
GMVPGYYPKMPYNPMGGDPLLDQAFYGADDFFFPPEGCDNNMLYPQTATSWNV	138000
IKPEEPVVAAAEEPATAPVVEETKPEEVAAEVAAEEDAAPVEEATPAEEVKPE	12400
